From patent US20150064217A1, “PLURIPOTENT GERM LAYER ORIGIN ANTIGEN PRESENTING CANCER VACCINE” (CALIFORNIA STEM CELL, INC., priority 2012, published 2015)

Experiments:
SK-5-Mel cells = experiment: MHC class II (HLA-DR) expression by flow cytometry with autophagy inhibitor; type: cell-based; conditions: autophagy inhibitor together with interferon-gamma
Experimental: The cells were then harvested and assayed for apoptosis and MHC class II (HLA-DR) expression by flow cytometry.
(§1) The methodology of the study was as follows. Autologous and model melanoma tumor cell lines were incubated with 1000 IU/mL of IFN-gamma for 72 hours prior to assaying for autophagy, apoptosis and MHC class II expression. Autophagy was detected by immunobloting with antibodies against LC3 II and by flow cytometry with Enzo's CytoID® Autophagy Detection Kit. Apoptosis and MHC class II induction were assayed by flow cytometry using 7-AAD and annexin-V staining and antibodies against MHC class II, respectively. 7-AAD intercalates in dsDNA. 7-AAD is excluded by viable cells, and thus it can be used to detect dead cells.
Analysis of tumor cell death and changes in major histocompatibility class II expression in response to IFN-gamma were conducted by use of antibodies directed against MHC class II, annexin-V and 7-amino-actinomycin D (7-AAD) and acquired on a Beckton-Dickenson FACS Calibur® flow cytometer.
(§2) What was investigated was the induction of autophagy, apoptosis and MHC class II molecules after IFN-gamma treatment of melanoma tumor cells in vitro. […] Autophagy was detected by immunobloting with antibodies against LC3 II and by flow cytometry with Enzo's CytoID Autophagy Detection Kit. […]

melanoma cell lines [1] = experiment: Apoptosis and autophagy induction in melanoma cell lines (7-AAD, annexin-V, LC3 II); type: cell-based
Experimental: as §1
Analysis of tumor cell death and changes in major histocompatibility class II expression in response to IFN-gamma were conducted by use of antibodies directed against MHC class II, annexin-V and 7-amino-actinomycin D (7-AAD) and acquired on a Beckton-Dickenson FACS Calibur® flow cytometer. […]
as §2

Ovarian tumor cell line = experiment: Response to interferon-gamma by flow cytometry, ovarian tumor cell line; type: cell-based; conditions: Sample B, interferon-gamma 72 hours
Description: (§3) Pure tumor cells were generated from colon, ovarian, glioblastoma, and renal cell carcinoma according to Dillman and Comforth, et al. (Cornforth, et al. (2011) Cancer Immunol. Immunother. 60:123-131; Dillman, et al. (1993) J. Immunother. Emphasis Tumor Immunol. 14:65-69; Dillman, et al. (2000) Cancer Biother. Radiopharm. 15:161-168; Dillman, et al. (1999) 14:443-449; Dillman et al. (2000) 15:161-168).
(§4) Briefly, tumor biopsies from surgical samples were enzymatically processed into single cell suspensions and purified cell lines generated by differential attachment and serum starvation. The cell lines generated were cryopreserved in liquid nitrogen, thawed and treated with or without interferon-gamma in 5% fetal bovine serum/RPMI media for 72 hours. After exposure to interferon-gamma, the non-adherent cells were analyzed separately from the adherent cells by flow-cytometry. The markers investigated were MHC class I, MHC class II, Annexin V (apoptosis), and 7-ADD (viability).

[2] = system: autologous melanoma cells; experiment: Flow cytometry for MHC class I and class II on autologous melanoma cells; type: cell-based, human; conditions: in response to IFN-gamma treatment
Experimental: FIGS. 2A-D show characterization of IFN-gamma treated autologous tumor cells used for loading dendritic cells. Autologous melanoma tumor cells were treated with or without 1000 IU/mL IFN-gamma for 72 hours in 15% FBS/ECS in RPMI, harvested and irradiated with 100 Gy and cryopreserved. Cells were then thawed in AIMV and a sample taken for flow cytometry and for preparation of cell lysates for immunoblotting prior to antigen loading of DCs. An example of four separate autologous melanoma cell lines is shown (FIG. 2A, FIG. 2B and FIG. 2C). Induction major histocompatibility complexes by IFN-gamma treatment of autologous tumor cells (FIG. 2D). Tumor cells were harvested after being treated with or without 1000 IU/mL IFN-gamma for 72 hours and then assayed for MHC class I and class II. Control isotype antibodies were used to identify positive populations. Dark data points indicate median mean fluorescent plus/minus 95% confidence interval. N=65. After irradiation, melanoma cells are checked by assays to ensure that there is not any mitosis. […]

[3] = system: autologous melanoma tumor cells; experiment: Immunoblotting of melanoma cell lysates; type: cell-based, human; conditions: cells incubated with IFN-gamma
Experimental: Cytoplasmic cell lysates were prepared with Mammalian Protein Extraction Reagent (Thermo Scientific, Rockford, Ill.) plus protease inhibitor cocktail (Roche, Indianapolis, Ind.) at 10,000 cells/uL on ice. Approximately 25 uLs/lane of cell lysates were separated on 12.5% tris-glycine gels, transferred to PVDF membrane and probed with antibodies against the following: calreticulin (MBL, Woburn, Mass.), Hsp-60, Hsp-70, Hsp-90 (R&D Systems, Minneapolis, Minn.), HMBG-1 (Cell Signaling, Danvers, Mass.), ICAM-1 (Santa Cruz Biotech, Santa Cruz, Calif.), Mel-4, Mart-1 (Signet, Emeryville, Calif.), tyrosinase (Upstate, Lake Placid, N.Y.) and GADPH (Calbiochem, Darmstadt, Germany).

[4] = system: Renal Cell Carcinoma tumor cell line; experiment: Response to interferon-gamma by flow cytometry, renal cell carcinoma cell line; type: cell-based; conditions: Sample D, interferon-gamma 72 hours
Description: as §3, §4

Colon tumor cell line = experiment: Response to interferon-gamma by flow cytometry, colon tumor cell line; type: cell-based; conditions: Sample A, interferon-gamma 72 hours
Description: as §3, §4

melanoma cell lines [5] = experiment: Immunohistochemistry of tumor associated antigens in melanoma cell lines with or without IFN-gamma; type: cell-based, human; conditions: share of melanoma cell lines; 1000 IU/mL IFN-gamma, 72 hours; N = 27 samples
Experimental: Expression of a panel antigens by melanoma lines were determined using immunocytochemical procedure. Cells were cultured in 8-chamber culture slides (Thermo Fisher, Rochester, N.Y.) in the presence or absence of 1000 IU/mL IFN-gamma. After 72 hours, the cells were washed 3 times with 1× Phosphate Buffered Saline (PBS) and fixed in cold acetone. After blocking endogenous peroxidase, cells were incubated with appropriate primary antibodies against the antigens listed. Immunohistochemistry was performed using biotinylated anitmouse or rabbit immunoglobulins, Super Sensitive enzyme-conjugated streptavidin labeling and horse radish peroxidase chromogen, and substrate kits (Biogenex, San Ramon, Calif.). The reactivity of the following anti-human polyclonal or monoclonal antibodies was investigated with isotype matched control antibody: S-100 and HMB-45 (Biogenex, San Ramon, Calif.), Mel-2, Mel-5, Mart-1 (Signet, Dedham, Mass.), Tyrosinase and Mage-1 (Thermo Scientific, Fremont, Calif.), Melan-A, HLA-class I and HLA-class II (Dako, Denmark).

[6] = system: Glioblastoma tumor cell line; experiment: Response to interferon-gamma by flow cytometry, glioblastoma cell line; type: cell-based; conditions: Sample C, interferon-gamma 72 hours
Description: as §3, §4

Cn1cnc(N)c2ncnc1-2 [3-MA, 3-methyladenine]
MHC class II expression despite treatment with interferon-gamma (SK-5-Mel cells): loss of MHC class II expression

carbobenzoxy-valyl-alanyl-aspartyl-[O-methyl]-fluoromethylketone [Z-VAD, reference compound]
apoptosis in IFN-gamma treated cells (melanoma cell lines [1]; pan caspase inhibitor with IFN-gamma): prevents apoptosis

B1: interferon-gamma (protein, UniProt P01579 24-161, looked up)
Interferon gamma: QDPYVKEAENLKKYFNAGHSDVADNGTLFLGILKNWKEESDRKIMQSQIVSFYFKLFKNFKDDQSIQKSVETIKEDMNVKFFNSNKKKRDDFEKLTNYSVTDLNVQRKAIHELIQVMAELSPAAKTGKRKRSQMLFRG
notes: type II interferon (InterMune, Brisbane, Calif.) used to treat tumor cells in vitro
Induction of MHC class I (Ovarian tumor cell line): Yes | Induction of MHC class II (Ovarian tumor cell line): Yes | Induction of apoptosis (Ovarian tumor cell line): No | Induction of autophagy (Ovarian tumor cell line): Yes | cases with MHC class II induction greater than two fold [2]: 70% | ICAM-1, immunoblot [3]: significantly up-regulated | calreticulin and high-mobility group box-1 protein (HMGB-1), immunoblot [3]: up-regulated in some cases | common melanoma antigens (mel-4, Mart-1 and tyrosinase), immunoblot [3]: down regulated | Induction of MHC class I [4]: No | Induction of MHC class II [4]: Yes | Induction of apoptosis [4]: Yes | Induction of autophagy [4]: Yes | induction of autophagic and apoptotic cell populations (melanoma cell lines [1]; 1000 IU/mL IFN-gamma, 72 hours): induces both autophagic and apoptotic cell populations | Induction of MHC class I (Colon tumor cell line): Yes | Induction of MHC class II (Colon tumor cell line): Yes | Induction of apoptosis (Colon tumor cell line): No | Induction of autophagy (Colon tumor cell line): Yes | HMB-45 expression: Change after IFN-gamma treatment, Down (melanoma cell lines [5]): 45/5 | HMB-45 expression: Change after IFN-gamma treatment, None (melanoma cell lines [5]): 54.5% | MAGE-1 expression: Change after IFN-gamma treatment, Down (melanoma cell lines [5]): 61.5% | MAGE-1 expression: Change after IFN-gamma treatment, None (melanoma cell lines [5]): 38.5% | MART-1 expression: Change after IFN-gamma treatment, Down (melanoma cell lines [5]): 85.2% | MART-1 expression: Change after IFN-gamma treatment, None (melanoma cell lines [5]): 14.8% | Mel-2 expression: Change after IFN-gamma treatment, Down (melanoma cell lines [5]): 53.8% | Mel-2 expression: Change after IFN-gamma treatment, None (melanoma cell lines [5]): 46.2% | Mel-5 expression: Change after IFN-gamma treatment, Down (melanoma cell lines [5]): 27.3% | Mel-5 expression: Change after IFN-gamma treatment, None (melanoma cell lines [5]): 72.7% | Melan-A expression: Change after IFN-gamma treatment, Down (melanoma cell lines [5]): 70.8% | Melan-A expression: Change after IFN-gamma treatment, None (melanoma cell lines [5]): 29.2% | S-100 expression: Change after IFN-gamma treatment, Down (melanoma cell lines [5]): 57.1% | S-100 expression: Change after IFN-gamma treatment, None (melanoma cell lines [5]): 42.9% | Tyrosinase expression: Change after IFN-gamma treatment, Down (melanoma cell lines [5]): 60.0% | Tyrosinase expression: Change after IFN-gamma treatment, None (melanoma cell lines [5]): 40.0% | Induction of MHC class I [6]: No | Induction of MHC class II [6]: Yes | Induction of apoptosis [6]: Yes | Induction of autophagy [6]: Yes
